Five molecules from patent US20200200749A1 (VANDERBILT UNIVERSITY, published 2020) can be followed below.

For assay [1], the target named is T1, EBOV sGP (EBOV (Ebola Zaire), UniProt P60170 33-324).
T1 sequence: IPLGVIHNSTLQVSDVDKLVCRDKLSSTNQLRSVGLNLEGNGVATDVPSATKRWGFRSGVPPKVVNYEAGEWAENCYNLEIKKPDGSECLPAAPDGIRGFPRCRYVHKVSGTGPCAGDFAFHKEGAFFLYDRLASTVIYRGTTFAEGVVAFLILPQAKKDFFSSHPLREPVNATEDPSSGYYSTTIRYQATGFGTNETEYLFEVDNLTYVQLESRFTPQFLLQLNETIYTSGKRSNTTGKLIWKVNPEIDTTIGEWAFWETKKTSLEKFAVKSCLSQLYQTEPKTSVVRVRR
As to the kind of experiment: ELISA, sGP coated on plate, mAb serially diluted.

For assay [2], the target named is T2, SUDV GP (recombinant) (SUDV (Sudan ebolavirus), UniProt Q66814 33-650).
T2 sequence: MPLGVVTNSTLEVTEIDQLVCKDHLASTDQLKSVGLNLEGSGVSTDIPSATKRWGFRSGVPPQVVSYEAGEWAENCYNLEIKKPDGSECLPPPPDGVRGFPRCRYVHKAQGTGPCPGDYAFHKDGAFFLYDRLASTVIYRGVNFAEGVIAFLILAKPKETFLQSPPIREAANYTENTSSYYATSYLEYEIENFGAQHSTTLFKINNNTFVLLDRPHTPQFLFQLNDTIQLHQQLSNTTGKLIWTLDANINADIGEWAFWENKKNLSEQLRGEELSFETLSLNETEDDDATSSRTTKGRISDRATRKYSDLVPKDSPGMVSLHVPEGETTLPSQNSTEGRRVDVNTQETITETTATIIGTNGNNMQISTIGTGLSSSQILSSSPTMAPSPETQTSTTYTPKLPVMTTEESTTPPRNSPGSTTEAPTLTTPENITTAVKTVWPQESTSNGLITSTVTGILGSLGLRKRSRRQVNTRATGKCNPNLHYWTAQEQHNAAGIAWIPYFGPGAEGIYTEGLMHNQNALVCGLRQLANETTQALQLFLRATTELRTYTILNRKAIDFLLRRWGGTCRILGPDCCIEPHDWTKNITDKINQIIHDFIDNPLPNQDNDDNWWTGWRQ
Kind of assay: ELISA, GP coated on plate, mAb serially diluted.

The target of assay [3] is T3, EBOV GP (recombinant, full-length extracellular domain) (EBOV (Ebola Zaire), UniProt Q05320 33-650).
T3 sequence: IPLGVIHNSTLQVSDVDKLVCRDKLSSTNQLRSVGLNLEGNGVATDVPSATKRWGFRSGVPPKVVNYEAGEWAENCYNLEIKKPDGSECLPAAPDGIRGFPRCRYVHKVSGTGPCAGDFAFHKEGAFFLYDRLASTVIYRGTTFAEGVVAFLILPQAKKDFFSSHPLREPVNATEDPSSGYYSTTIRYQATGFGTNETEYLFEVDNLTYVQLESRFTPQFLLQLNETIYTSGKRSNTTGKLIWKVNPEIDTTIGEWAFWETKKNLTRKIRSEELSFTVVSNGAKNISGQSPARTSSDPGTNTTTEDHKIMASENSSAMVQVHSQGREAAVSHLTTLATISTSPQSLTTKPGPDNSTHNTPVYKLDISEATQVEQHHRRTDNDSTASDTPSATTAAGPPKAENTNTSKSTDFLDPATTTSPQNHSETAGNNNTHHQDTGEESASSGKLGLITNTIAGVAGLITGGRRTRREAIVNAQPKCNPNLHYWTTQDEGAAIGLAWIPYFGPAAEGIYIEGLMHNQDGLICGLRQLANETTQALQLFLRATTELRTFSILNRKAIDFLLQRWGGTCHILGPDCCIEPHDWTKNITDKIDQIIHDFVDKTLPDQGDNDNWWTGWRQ
As to the kind of experiment: ELISA, GP coated on plate, mAb serially diluted.

B1: EBOV87 (antibody, V domains shown)
VH: QVQLVQSGAEVKRPGASVKVSCKASGYTFTSYAISWVRQAPGQGLEWMGWISGNNGNTNYAQKLQGRLTMTTDTSTSTAYMELRSLRSDDTAVYYCARDADIVVVVGATGTYYYGMDVWGQGTLVTVSS
VL: DIVMTQSPSTLSASVGDRVTITCRASQSISSWLAWYQQKPGKAPKLLIYDASSLESGVPSRFSGSGSGTEFTLTISSLQPDDFATYYCQQYKSSLRTFGQGTQLEIK
For B1, the concentration giving a half-maximal response (EC50) in assay [1] was determined as 51 µg/mL; in assay [2], 629 µg/mL; in assay [3] it was 724 µg/mL.

B2: EBOV63 (antibody, V domains shown)
VH: EVQLVESGGGLVKPGGSLRLSCAASGFTLNFYNMNWVRQAPGKGLEWVSSISSSSNYIYYADSVKGRFTISRDNARKSLYLQMNSLRAEDTAVYYCARDFVQLLIPQRDEWQGVHDYYGMDVWGQGTLVTVSS
VL: EIVLTQSPGTLSLSPGGRATLSCRASQSVSNSYLAWYQQKPGQAPRLLIYGASSRATGIPDRFSGSGSGTDFILTISRLEPEDFAVYYCQHYGSSQLTFGGGTKVEIK
With B2, the concentration giving a half-maximal response (EC50) is 38 µg/mL in assay [1] and 283 µg/mL in assay [3].

B3: EBOV52 (antibody, V domains shown)
VH: QVQLQESGPGLVKPSETLSLNCTVSGGSISSYYWSWIRQPPGKGLEWIGYIYDSGRTKYNPSLKSRVTISLDTSKNQFSLKLSSVTAADTAVYYCASLGPFDKLWFGELLPGWFDPWGQGTLVTVSS
VL: EIVLTQSPATLSLSPGGRATLSCRASQSVHNYLAWYQQKSGQAPRLLIYDASNRATGIPARFSGSGSGTDFTLTISSLEPDDFAVYYCQHRSNWLTFGGGTKVEIK
Take B3: the EC50 in assay [1] is 82 µg/mL; in assay [3], 712 µg/mL.

B4: EBOV62 (antibody, V domains shown)
VH: EVQLVESGGGLVQPGGSLRLSCAASGFTFSSYWMSWVRQAPGKGLEWVANIKQDGSAKYYVDSVKGRFTISRDNAKNSLYLQMNSLRAEDTAVYYCARDGLLGISDLLYPIYYFDYWGQGTLVTVSS
VL: DIVMTQSPSSLSASVGDRVTITCRASQNIGSYLNWYQQKPGKAPNLLMYAASSLQSGVPSRFSGSGSGTDFTLTITSLQPEDFATYYCQQSYSIPRTFGQGTQLEIK
With B4, the concentration giving a half-maximal response (EC50) in assay [1] is 51 µg/mL; in assay [3], 228 µg/mL.

B5: EBOV49 (antibody, V domains shown)
VH: EVQLVESGGGLVQPGGSLRLSCAASGFTFSSYEINWVRQAPGRGLEWVSYISSSGRTIYYADSVKGRFTISRDNAKNSLYLQMNSLRAEDTAVYYCAREPYVDGILYGAGDSYFDYWGQGTLVTVSS
VL: DIQMTQSPSSLSASVGDRVTITCRASQSISNYLNWYQQKPGKAPKVLIYAASSLQSGVSSRFSGSGSGTDFTLTISSLQPEDFATYFCQQSYNTPPVTFGQGTRLEIK
With B5, the EC50 came to 61 µg/mL in assay [1] and 262 µg/mL in assay [3].
